Among the data in paper PMC314469, “Protein Interaction Networks by Proteome Peptide Scanning” (PLoS Biology, 2004) are normalised SPOT signal, Boehringer light units (BLU); mean over the file's lines of this peptide values, retold here.

The labels stand for the following.
T1: Abp1 SH3 (ABP1_YEAST), P15891
T1 chain: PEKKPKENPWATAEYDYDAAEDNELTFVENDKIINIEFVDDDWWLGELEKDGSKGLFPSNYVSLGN

B1: YMR042W 16-29 (peptide)
chain: PITGDVETNEPTKP
B2: YFL011W 29-42 (peptide)
chain: PETREASLDIPYKP
B3: YER134C 18-31 (peptide)
chain: PSYSDTHLHGPFKP
B4: YGR092W 45-57 (peptide)
chain: PAGINDSPSPVKP
B5: YJL060W 83-95 (peptide)
chain: PMVNQYSPTRGRP
B6: YHL029C 305-318 (peptide)
chain: PLPFELRSKLPTKP
B7: YIR006C 205-218 (peptide)
chain: PPPQQAQSLQPLKP
B8: YOL004W 624-637 (peptide)
chain: PIANTQYGDIPVRP
B9: YBR041W 461-474 (peptide)
chain: PGEMLMRIFFPKKP
B10: YGL137W 97-110 (peptide)
chain: PDYIRSIAVHPTKP
B11: YJR083C 40-53 (peptide)
chain: PESKSPRVTTPLKP
B12: YCR094W 11-23 (peptide)
chain: PPLTKEGPTSKKP
B13: YLR072W 386-399 (peptide)
chain: PFHVQETMDFPYKP
B14: YNL236W 155-168 (peptide)
chain: NVYKIYNHVMPLKP
B15: YGL073W 519-532 (peptide)
chain: NYNSNNNAGSPIRP
B16: YDR433W 131-144 (peptide)
chain: PEMLHVKDHQPGKP
B17: YDL064W 59-72 (peptide)
chain: PITVEYPNEYPSKP
B18: YCR004C 43-56 (peptide)
chain: PDEVLTKMNAPQKP
B19: YMR016C 338-351 (peptide)
chain: PLYDGNSITPPVKP
B20: YOR117W 130-142 (peptide)
chain: PMVGLVDPDKLKP
B21: YER086W 492-505 (peptide)
chain: PNERIISFEFPERP
B22: YJL200C 564-577 (peptide)
chain: PNSDRLQLLEPFKP
B23: YJL123C 260-272 (peptide)
chain: PNNNGITPVEKKP
B24: YPL243W 529-541 (peptide)
chain: PLKPKMLPIPSKP
B25: YGR156W 131-144 (peptide)
chain: PFEMVTEVPIPRRP
B26: YDR158W 295-308 (peptide)
chain: PKQTIHVLEQPDRP
B27: YGR237C 285-298 (peptide)
chain: NVTDPLAAIYPSRP
B28: YGL035C 180-192 (peptide)
chain: PKTMAKIPVSVKP
B29: YNL216W 571-584 (peptide)
chain: PEPMKNLTNRPKRP
B30: YDR266C 579-591 (peptide)
chain: PKPKVQIPGLNRP
B31: YMR081C 97-110 (peptide)
chain: PANSTNNSNEPIRP
B32: YDR091C 569-581 (peptide)
chain: NVTFRRDPNSFRP
B33: YIR003W 384-396 (peptide)
chain: PKRRAPPPVPKKP
B34: YHR182W 754-767 (peptide)
chain: PFKTSSTPTTPERP
B35: YDR464W 659-672 (peptide)
chain: PDLRLTKSGKPKKP
B36: YPR091C 655-668 (peptide)
chain: PKMISNRRPVPRRP
B37: YKL064W 123-135 (peptide)
chain: PIMKFSTPSYKKP
B38: YDL019C 243-256 (peptide)
chain: PLDLVKNIKLPAKP
B39: YBR102C 23-35 (peptide)
chain: PAKQKTPPSPAKP
B40: YMR032W 377-390 (peptide)
chain: NVDDSVLRQKPDKP
B41: YGL195W 2278-2290 (peptide)
chain: NVLFIKIPMFLRP
B42: YER064C 414-427 (peptide)
chain: PLVSSNKQSNPMRP
B43: YPL008W 555-568 (peptide)
chain: NYSIKYMLLEPSKP
B44: YCL044C 243-255 (peptide)
chain: PIIKWFGPLEYKP
B45: YMR047C 1028-1041 (peptide)
chain: PKTSIIYANLPNRP
B46: YLR176C 127-139 (peptide)
chain: PPLIGSGPGSHKP
B47: YBL081W 344-356 (peptide)
chain: NVSSSSQPASSRP
B48: YMR109W 1073-1085 (peptide)
chain: PPPPPPPPPSSKP
B49: YNL009W 115-127 (peptide)
chain: PKIPRLVPHWEKP
B50: YML065W 327-340 (peptide)
chain: PKKRGRKPKDPSKP
B51: YGR024C 108-121 (peptide)
chain: NYVALWAKFFPEKP
B52: YNL137C 417-429 (peptide)
chain: PKKPFFTPWKPRP
B53: YDR085C 528-541 (peptide)
chain: PDSSFDKVETPPKP
B54: YCL014W 801-814 (peptide)
chain: NVTKETKEILPVKP

The target in the experiment is T1, Abp1 SH3 (ABP1_YEAST), P15891. In words: SPOT array.
Molecule B1 had a normalised SPOT signal, Boehringer light units (BLU); mean over the file's lines of this peptide of 28.9.

In turn, B2 returned a normalised SPOT signal, Boehringer light units (BLU); mean over the file's lines of this peptide of 16.9. For the molecule B3, the normalised SPOT signal, Boehringer light units (BLU); mean over the file's lines of this peptide stood at 80.2. B4 gave a normalised SPOT signal, Boehringer light units (BLU); mean over the file's lines of this peptide of 117. Next, B5: 2140. B6: the normalised SPOT signal, Boehringer light units (BLU); mean over the file's lines of this peptide amounted to 2670. For B7 the value was 188. For B8 the value was 67.

B9 gave a normalised SPOT signal, Boehringer light units (BLU); mean over the file's lines of this peptide of 561. In the case of B10, the normalised SPOT signal, Boehringer light units (BLU); mean over the file's lines of this peptide was found to be 51.9.

B11 displayed a normalised SPOT signal, Boehringer light units (BLU); mean over the file's lines of this peptide of 140. In turn, B12 returned a normalised SPOT signal, Boehringer light units (BLU); mean over the file's lines of this peptide of 200. For B13 the value was 53; for B14, 0. In the case of B15, the normalised SPOT signal, Boehringer light units (BLU); mean over the file's lines of this peptide stood at 58.5. For B16 the value was 120. Next, B17: 96.3; B18: 81.4; B19: 110. B20 showed a normalised SPOT signal, Boehringer light units (BLU); mean over the file's lines of this peptide of 234. For B21 the value was 64.1.

B22 showed a normalised SPOT signal, Boehringer light units (BLU); mean over the file's lines of this peptide of 98.6.

Molecule B23 showed a normalised SPOT signal, Boehringer light units (BLU); mean over the file's lines of this peptide of 0. Next, B24: 14100; B25: 688.

For B26, the normalised SPOT signal, Boehringer light units (BLU); mean over the file's lines of this peptide came out at 62.2. In turn, B27 registered a normalised SPOT signal, Boehringer light units (BLU); mean over the file's lines of this peptide of 40.9. The molecule B28 gave a normalised SPOT signal, Boehringer light units (BLU); mean over the file's lines of this peptide of 1630. In turn, B29 registered a normalised SPOT signal, Boehringer light units (BLU); mean over the file's lines of this peptide of 913. For the molecule B30, the normalised SPOT signal, Boehringer light units (BLU); mean over the file's lines of this peptide was 38700. Next, B31: 131; B32: 363. Regarding B33, the normalised SPOT signal, Boehringer light units (BLU); mean over the file's lines of this peptide is 110000. Take B34: the normalised SPOT signal, Boehringer light units (BLU); mean over the file's lines of this peptide was found to be 138. On to B35, for which the normalised SPOT signal, Boehringer light units (BLU); mean over the file's lines of this peptide is 131. Turning to B36, the normalised SPOT signal, Boehringer light units (BLU); mean over the file's lines of this peptide was found to be 5500. With B37, the normalised SPOT signal, Boehringer light units (BLU); mean over the file's lines of this peptide amounted to 726.

Molecule B38 had a normalised SPOT signal, Boehringer light units (BLU); mean over the file's lines of this peptide of 383. For B39 the value was 557; for B40, 116; for B41, 79.2.

For the molecule B42, the normalised SPOT signal, Boehringer light units (BLU); mean over the file's lines of this peptide is 1040. Next, B43: 103; B44: 85.4. Next, B45: 97.2; B46: 192; B47: 136. B48 came in with a normalised SPOT signal, Boehringer light units (BLU); mean over the file's lines of this peptide of 117.

The molecule B49 registered a normalised SPOT signal, Boehringer light units (BLU); mean over the file's lines of this peptide of 520. B50 had a normalised SPOT signal, Boehringer light units (BLU); mean over the file's lines of this peptide of 32.6. Molecule B51 yielded a normalised SPOT signal, Boehringer light units (BLU); mean over the file's lines of this peptide of 103.

As for B52, the normalised SPOT signal, Boehringer light units (BLU); mean over the file's lines of this peptide was 1330.

For the molecule B53, the normalised SPOT signal, Boehringer light units (BLU); mean over the file's lines of this peptide is 196. The molecule B54 displayed a normalised SPOT signal, Boehringer light units (BLU); mean over the file's lines of this peptide of 43.
